A protein production outcome set (Wang et al. 2014)

Assay: label from the status in PepcDB records
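Also: failed if final PepcDB status was selected cloned or expressed and not failed if soluble or beyond.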

MGHHHHHHSHMGNIPEAIASYRTALKLKPDFPDAYCNLAHCLQIVCDWTDYDERMKKLVSIVADQLEKNRLPSVHPHHSMLYPLSHGFRKAIAERHGNLCLDKINVLHKPPYEHPKDLKLSDGRLRVGYVSSDFGNHPTSHLMQSIPGMHNPDK
protein production: failed

DAPQGAVIILPGDAESPDWPDTVGPLRRKFPDVGWSSLSITLPDAQDNTLLPREPDAAAGDANAAKPEETPKDAAAKAPDPAAEAEALAAVATAKAAADEERNKAQAELIFARIESAISFAQQNKARNIVLLGHSSGAYWAARFLNERPSPAVQKLVMVAA
protein production: failed

MTNHQHPQTTTQWIDLIANSELPAITSTARMLDKFSNDDKSSLPKLSEAILHDQGLSSCLLKVANNIQHISINKVTTVSRASVVLGIQSVKNICLTAKLVSSLLASKSLDINVYEQLTQLMANSFYAGMLAKMMVPNYSEEIQEEVYLAAMLYRIGESAFWSAGGDVAKKLANYEAKSPQDFNQYCRKEMGTNFSELSKGLAGTWNLSDLLIKALDQPTTRTDEVKVIYFADKLSAIIAKPEGCEEDYHKLLKEIAYIVGISVRQLTVRIEHTREQAEKLLSSYGAEILTERINSLPTAEDFKSLGGDFDTREVVSKDKALLNGFMKLTKLIQNSKDFNEYLQLTLESLALTFAFDRSSFLMLVDDRARVKSRLVVNKNAQDDASKINIDIKHSDNVIARVISTDTAALINDHQEIRWRDLVTEEISEVIVEGAIAFVPVKIGGKAIGVICLQLLSPDQKIETQDFQQICAFIDHLNMCLTMIKYS
protein production: failed

MALGPEGAADLQRQLTEWTVFTAHCWQARSPQTEVLIATSGGTSEAWQQWLGAVEVQPQAEGDLGDRLHQAFQDSWQVGCDRTVIIGSDCPQIEPHHLDEAFAVLQQADVVIGPASDGGYWLIGLSQPQPQLFQNIDWGSDRVLVQTLEAAQVADLQVAQLESLSDLDRPEDLNLWQPQPQLSVIITTLNEAANLPQTLALIGDAPVETLVVDGGSQDATVAIAQAWGAKVIHSPAGRGRQFNQGAAAAHGNILLFLHGDTRLPPRFWEHVLQTLQPPQVVAGAFQLQIDSPDWRLRWIERGVRWRSHWLQQPYGDQALFLSRDRWRAIGGFSTGPLLEDYRFVRQLRRQGTIAIASAAVMTSARRWQRRGVLQTTLLNQLILLAHHCGVSDQQLARWYRLEHHHHHH
protein production: not failed

MGGSFGKKGASSATAAQVPLATETTPGLMSPSEKLKLSTLTTSIATSDFYASYDFMMHSIGLTSANNISLLSTGNISLQNILSEGNHFGVQPIVSSTTANASFLAGMLMAIFPKESELEVTVYFKTPSAFNPAQLTVIGSTSIGLGISDRSGLIIENGNAFGGIVKASAATETGSTYALSTSTWYICKFKMLTDDRFKVTLYSDSGTQLYSYTSTAAMFRADNATAHIGFKTQCKTATAGISLISIDLIEFKAKVSATRAKV
protein production: not failed

MSEDNFDDEFDGSLPSGPRHPMARRFRGYLPVVVDVETGGFNSATDALLEIAATTVGMDEKGFLFPEHTYFFRIEPFEGANIEPAALEFTGIKLDHPLRMAVQEEAALTEIFRGIRKALKANGCKRAILVGHNSSFDLGFLNAAVARTGIKRNPFHPFSSFDTATLAGLAYGQTVLAKACQAAGMEFDNREAHSARYDTEKTAELFCGIVNRWKEMGGWMDDDD
protein production: not failed

MKNIAFFDFDGTITSTDSYTPFIFQTIPASRMKKGKFLLAPYILGYRLKLIRGTVLRSKIFKLGFAGLDADEIQQKGLSFSQSYLPQIIRPQALERIQWHLAQGDHVVVVSASMDVYLKPWCTQYGLDLLCSEVDTINGKITGIYKNGDCSREVKKQRILDNYDLSLYAAIYAYGDTIEDQAMLSLATHGFYRWQPINPR
protein production: failed

EENPRGRFAITLPHSLESNVVMPAIEQLCIEYPGIEPEIIVSDSSLDLVENNLDVAIHAGDLPDSSYRALPIGTITEIFCATPLYLNKNFTPQKLSDLAQLKWI
protein production: failed

MTNLEAKENNLIKDLASKQRVAIAYSGGIDSTYLLKVAVDELGKDNVLAMVVNSELFLDDEYNKALELAKDLGANAMGVSMSELADERIAANTPESWYYSKQLLYRTIKKAAAEKGFDIVLDGMIMDDNADFRPGMKARTEEGIVSSLQDADLYKSEIRELAKDRGISNWNKVASC
protein production: not failed

MIQARSRRPLSCSLRSSSQNPIATTFLTGGKMDRIVRQILVKLLGGERSVYELIYYQDASLREFFELLNSLRDEGLIEVESGKVRITEKGREVAEKERLKFCGDVECECCEGTGLSINPYFKEILQKYSEIAKDRPETIEVYDQGFISLEGVIRRVEFVYDRGDLNGRIFVVGDDDLFGIAASLTGMPEKVAVVDIDERLINFINRVAEEYSLNVEAFVYDVQQAFPDELKRKFDVFVTDPVETIPGLKLFLSRGVSTLKGVGGAGYFGITTLEASRRKWYEIQRMIHDMGFIITDLRRRFNVYPEDEKNFFRFQEKLPIVRHLQAKVDFNWYNSTLFRIEAVKEPKPIVEGEMIIDEKVYKDDESWATPY
protein production: failed

MEFQLWGAKIVIEPKPDLRYLYLEITNRCNLKCEMCFKQYWEDKEGDMDWDLFLKILDDAKEFPELKMIYFGGIGEPSVHPRFMDMVREVKRRGFRLGMSTNGVLLEDKILEEFVKLGVDVVYFSMDAIPTPSNIVTLGHITSKVVESRIKKLVELKKRYKTEKPTIGVEVVATKENYKQLPEMAIYLRNLGVDSMLISNLIPMTKEHSKAIVYDGSVDMTPIVNELHQIAEGGPFMRIAEFKLRTNRYCDFIENNVTVVRWDGEVFPCYRFLHTYPEVIFGREKKVIAHSFGNVKEKSLKDIWMSEEYVRFRFLVKASAYPSCIDCPLNTSCSFALDTTQDCWGTSPSCGDCLWSRGIVLCPIPFEYMGKFL
protein production: failed

MNTKPVLVILGPTASGKTELAFRIARQTGGEIISADSRQIYRGMDIGTAKPPRWMLDEVKHHFIDKKEIGEPFSAGDFAEQAAEKIRELHQRGITPVVAGGSTLYLEGLLKGFAELPPADPEIRAQLTRELERHGAEALYRRLEALDPEQAKTLDPTKTQRLIRSLEIIEISGTTVTALQSKTPGPPTGINFTVIGLDLPRELLYERINQRTSAMIQAGLEAEARYLFDKFRDEWRSKNLNALATVGYRELFEHFEELHDLDTAVSLIAQHTRNYAKRQLTFFRNRLDVEWVKAPLDEAEIEALVEFFSTRQDDSVPHSPIAIAKKQNA
protein production: failed

MIRIKTPSEIEKMKKAGKAVAVALREVRKVIVPGKTAWDVETLVLEIFKKLRVKPAFKGYGGYKYATCVSVNEEVVHGLPLKEKVFKEGDIVSVDVGAVYQGLYGDAAVTYIVGETDERGKELVRVTREVLEKAIKMIKPGIRLGDVSHCIQETVESVGFNVIRDYVGHGVGRELHEDPQIPNYGTPGTGVVLRKGMTLAIEPMVSEGDWRVVVKEDGWTAVTVDGSRCAHFEHTILITENGAEILTKEG
protein production: not failed

MGSCMKWDYGEMEDFSVSASGLFITNEGNFQYSNATLSYYDPATCEVENEVFYRANGFKLGDVAQSMVIRDGIGWIVVNNSHVIFAIDINTFKEVGRITGFTSPRYIHFLSDEKAYVTQIWDYRIFIINPKTYEITGYIECPDMDMESGSTEQMVQYGKYVYVNCWSYQNRILKIDTETDKVVDELTIGIQPTSLVMDKYNKMWTITDGGYEGSPYGYEAPSLYRIDAETFTVEKQFKFKLGDWPSEVQLNGTRDTLYWINNDIWRMPVEADRVPVRPFLEFRDTKYYGLTVNPNNGEVYVADAIDYQQQGIVYRYSPQGKLIDEFYVGIIPGAFCWKLEHHHHHH
protein production: failed

MNQTKTTDDNNNNSKPDETESTTTVPEWITETINGGSFHHVDLETGTNGWASPPGNVFSLRSNNYFTTKQKSPGGDYLLSLIAVDWLKSTTKKLDHILCRPDNRVIHALETSQSRSFIFAVNFQIPGKEHYHLVLYFATEKPIPSDSILHKFINIDDDSFRNERFKVVTNVVKGPWVVKATAGKLGAFLAGKVVKCSYYRGANYFEVDVDFSISAIYSALVRLTLGYVTNLVADVGFVVEAQTEEELPERLIGGGRVCYMELSSAFLVDDGKKMGAAEGNHSEDEI
protein production: failed

MKQLFQKLYDHIEITLLVLLSVSFVTGMYMMMNRPIGPTMMDYVPQVIIGTIIIVDIVFLISGRKKENSK
protein production: failed

MHSHPSPKFSVITVTYNAEKVLEDTVQSVISQTYHHVEYIIIDGASKDGTLEIVNRYRNRINQLVSEPDKGLYDAMNKGIALATGDYLCFLNAGDSFHEDDTLQKMVHSINGNELPDILYGETALVDAERHFLRMRRLSAPETLNWKSFKQGMLVCHQAFFPRHTLIEPYDLQYRFSADFDWCIHIMKKARTFHNTHLILIDYLAEGMTTQNHKASLLERFRIMTRHYGLLSTLAHHAWFVVRSFSRNSATPSDAPFLEHHHHHH
protein production: failed

MVGLGTVINVILIIVGGFVGLFLKNFLKESLQKSLMQAMGVAVLFISISGVLEKMMLVEKSHLISNHTNMMIITLALGTVLGELLSLDSYIDKFGNYLKQKTGSGNDIKFVEAFVTSTCTVCIGAMAVVGSIQDGIAADHSILFAKGMLDMIIIAIMTVSLGKGALFSALPVALLQGSLTIVAFFMGSLLNPSSLDYLNLVGNMLIFCVGVNLLFNLNIKVINMLPAIILAILWGSFI
protein production: failed

MIRKYRYGAPFDTEALTEKIETAEEAFPYGEISQKEGFAFTYIMDEDDIVYGLGESNRGINKRGYCYISNCTDDPIHTEDKRSLYGAHNFIIVSGKTTFGLFFDYPSKLTFDIGYTRMDTLKVSCENADLDIYVIEGENAYDIVKQFRRVIGRSYIPPKFAFGFGQSRWGYTTKEDFRAVAKGYRENHIPIDMIYMDIDYMQDFKDFTVNEKNFPDFPEFVKEMKDQELRLIPIIDAGVKVEKGYEVYEEGVKNNYFCKREDGSDFVAAVWPGDTHFPDMLNPEARKWFGDKYRFLIDQGIEGFWNDMNEPAIFYSSEGLAEAKEFAGEFAKDTEGKIHPWAMQAKMKDIVNSPEDYKRFYHNVNGKKIRHDKVHNLFGYNMTRAAGEAFERIDPEKRFLMFSRSSYIGMHRYGGIWMGDNKSWWSHILLNLKMLPSLNMCGFMYTGADLGGFGDDTTRDLLLRFLALGVFTPLMRDHAAEGTREQECYQFENIEDFRSVINARYRLVPYLYSEYMKAALNDDMYFKPLGFVYPDDKMAIRVEDQLMLGNEIMIAPVYEQNARGRYVYLPEEMKFIKFMPDGSISEEVLEKGVHYVDVALNEVPLFIRSGKCIPVAEAAECVKDIDTENMQLIGYEGSSYTLYEDDGIHKDYDKKENYRVLTK
protein production: not failed

QVKRQTRRVASATYMVSLLDSQIDSPATLFIDEQALEAAKRRSYQRGVLEGSEMSRVFSWMRPNDLIWTYWINNYLLGKSPPPFDILYWNNDTTRLPAALHGDLLDFFKHNPLSHAGGLEVCGTPIDLQKVTVDSFSVAGINDHITPWDSVYRSTLLLGGDRRFVLANSGHVQSILNP
protein production: not failed

MKHFDYSRGLKAPYSLQVIKSPKGKIVWYFAQPLSLAYLVMLFLGIVLTGIFWKFVPLPLIFGINLNLMIMLYFPNKVARWYTETEFEGKTGLAFLKDGFVYVKNYVLDNRSIISFERVKEIEEFSFKR
protein production: failed

MPIPLEKQNKERRQKILTCSLDLFIEKGYYNTSIRDIIALSEVGTGTFYNYFVDKEDILKNLLEDFAKQIISSISEYYLVEKDLYERFIETKRLTMEVFAQNETLSEIYSRVAGSSAPIDQCLKQFEDRLLEFYSRNIEYGIKKGVFKNVPVSPIAHSILAIEKFSLYKWVVLKAITKEEMIEMVLSFHKTLAVGLLVVND
protein production: not failed

MAQKENSYPWPYGRQTAPSGLSTLPQRVLRKEPVTPSALVLMSRSNVQPTAAPGQKVMENSSGTPDILTRHFTIDDFEIGRPLGKGKFGNVYLAREKKSHFIVALKVLFKSQIEKEGVEHQLRREIEIQAHLHHPNILRLYNYFYDRRRIYLILEYAPRGELYKELQKSCTFDEQRTATIMEELADALMYCHGKKVIHRDIKPENLLLGLKGELKIADFGWSVHAPSLRRKTMCGTLDYLPPEMIEGRMHNEKVDLWCIGVLCYELLVGNPPFESASHNETYRRIVKVDLKFPASVPTGAQDLISKLLRHNPSERLPLAQVSAHPWVRANSRRVLPPSALQSVA
protein production: failed
